In assay [1] the target is T1, human calcitonin receptor (human, UniProt P30988 25-474).
T1 construct: whole, on cells; Assay used cell membranes, not intact cells; also called hCTR; hCT
T1 sequence (looked up): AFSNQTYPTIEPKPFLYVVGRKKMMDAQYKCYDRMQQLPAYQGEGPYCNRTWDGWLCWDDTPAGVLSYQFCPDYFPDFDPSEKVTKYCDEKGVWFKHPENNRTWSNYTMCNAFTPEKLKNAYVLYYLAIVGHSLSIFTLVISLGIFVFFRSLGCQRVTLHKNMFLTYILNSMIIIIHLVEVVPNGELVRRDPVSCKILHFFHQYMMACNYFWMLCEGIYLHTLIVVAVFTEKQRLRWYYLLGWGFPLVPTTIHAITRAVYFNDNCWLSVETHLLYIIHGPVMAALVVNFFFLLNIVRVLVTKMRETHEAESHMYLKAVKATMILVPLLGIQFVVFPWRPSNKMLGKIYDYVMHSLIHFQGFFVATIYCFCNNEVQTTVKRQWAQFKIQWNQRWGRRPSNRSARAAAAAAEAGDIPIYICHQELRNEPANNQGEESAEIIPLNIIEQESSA
Description: ratio IC50 hCTR / IC50 hAmylin-R (reference: human amylin receptor), SPA competition assays. The gist of the method: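 Competition binding by SPA with cell membranes (35 ng/μL) and SPA beads in 50 mM Hepes pH 7.4 with 1 mM CaCl2, 5 mM MgCl2, 0.1% OA and 0.02% Tween20. Incubated 120 min at 25 °C with shaking, then counted.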

Assay [2] concerns the target T1, human calcitonin receptor. In words: SPA competition with 125I-calcitonin on membranes of BHK cells with human calcitonin receptor (Assay VII). The essentials:
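BHK hCTR membranes 35 ng/μL + SPA beads 0.05 mg/well; buffer 50 mM Hepes pH 7.4, 1 mM CaCl2, 5 mM MgCl₂, 0.1% OA, 0.02% Tween20. 120 min, 25° C., shaking. Scintillation count; IC50 by one-site binding competition.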

The target in assay [3] is T2, human amylin receptor (amylin 3(a) receptor: human calcitonin receptor with RAMP-3) (human, UniProt P30988 25-474; O60896 24-148).
T2 construct: whole, on cells; Assay used cell membranes of the Amylin 3(a)/CRE-luc BHK cells, not intact cells; also called hAmylin-R; hAmylinR
T2 sequence (looked up) 1: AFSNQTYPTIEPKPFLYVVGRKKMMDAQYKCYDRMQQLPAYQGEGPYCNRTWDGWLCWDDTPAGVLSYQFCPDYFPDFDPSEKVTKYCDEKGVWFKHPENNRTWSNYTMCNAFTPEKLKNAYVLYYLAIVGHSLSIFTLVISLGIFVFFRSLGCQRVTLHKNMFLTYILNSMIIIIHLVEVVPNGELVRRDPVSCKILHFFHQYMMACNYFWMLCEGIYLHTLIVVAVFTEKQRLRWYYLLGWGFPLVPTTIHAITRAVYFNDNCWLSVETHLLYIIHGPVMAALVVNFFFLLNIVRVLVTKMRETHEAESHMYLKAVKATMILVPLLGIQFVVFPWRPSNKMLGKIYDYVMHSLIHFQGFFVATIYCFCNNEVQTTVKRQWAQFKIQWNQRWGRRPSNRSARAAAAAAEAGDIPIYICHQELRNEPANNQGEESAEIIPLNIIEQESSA
T2 sequence (looked up) 2: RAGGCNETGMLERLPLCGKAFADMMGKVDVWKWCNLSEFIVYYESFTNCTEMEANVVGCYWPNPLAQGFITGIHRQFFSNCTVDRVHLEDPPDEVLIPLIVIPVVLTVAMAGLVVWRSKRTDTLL
In words: SPA competition with 125I-rat amylin on membranes of BHK cells with human calcitonin receptor and RAMP-3 (Assay V). The gist of the method: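 SPA beads with BHK Amylin 3(a)/CRE-luc cell membranes (35 ng/μL final) in 50 mM Hepes pH 7.4, 1 mM CaCl2, 5 mM MgCl₂, 0.1% OA, 0.02% Tween20.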

The results in this text go back to US20140087995A1 (published 2014).

A word on the IC50: it is the point on the concentration scale where inhibition reaches its midpoint.

Numbered stars: 1 amine (or outer) side, 2 acyl side, 3 side chain; on linkers, the order of the positions; unused ones are H or OH. Bridge positions count the residues as written; N and C are the ends. Side chains are listed from the residue outwards. Ends that are not written are not given here. * marks the point of attachment. C20 diacid = O=C(O)CCCCCCCCCCCCCCCCCCC(=O)*; γGlu = O=C(O)[C@H](CCC(=O)[*:2])N[*:1]

B1: N^ε1-[(4S)-4-carboxy-4-(19-carboxynonadecanoylamino)butanoyl]-[Asp14,Arg17,Pro21,Pro27,Pro34,Arg35]-h-amylin (peptide)
peptide: K([γGlu-C20 diacid])CNTATCATQRLADFLRHSSPNFGAIPSSTNVGPRTY-NH2
modifications: disulfide 2-7; N-terminus assumed
SMILES: CC[C@H](C)[C@H](NC(=O)[C@H](C)NC(=O)CNC(=O)[C@H](Cc1ccccc1)NC(=O)[C@H](CC(N)=O)NC(=O)[C@@H]1CCCN1C(=O)[C@H](CO)NC(=O)[C@H](CO)NC(=O)[C@H](Cc1c[nH]cn1)NC(=O)[C@H](CCCNC(=N)N)NC(=O)[C@H](CC(C)C)NC(=O)[C@H](Cc1ccccc1)NC(=O)[C@H](CC(=O)O)NC(=O)[C@H](C)NC(=O)[C@H](CC(C)C)NC(=O)[C@H](CCCNC(=N)N)NC(=O)[C@H](CCC(N)=O)NC(=O)[C@@H](NC(=O)[C@H](C)NC(=O)[C@@H]1CSSC[C@H](NC(=O)[C@@H](N)CCCCNC(=O)CC[C@H](NC(=O)CCCCCCCCCCCCCCCCCCC(=O)O)C(=O)O)C(=O)N[C@@H](CC(N)=O)C(=O)N[C@@H]([C@@H](C)O)C(=O)N[C@@H](C)C(=O)N[C@@H]([C@@H](C)O)C(=O)N1)[C@@H](C)O)C(=O)N1CCC[C@H]1C(=O)N[C@@H](CO)C(=O)N[C@@H](CO)C(=O)N[C@H](C(=O)N[C@@H](CC(N)=O)C(=O)N[C@H](C(=O)NCC(=O)N1CCC[C@H]1C(=O)N[C@@H](CCCNC(=N)N)C(=O)N[C@H](C(=O)N[C@@H](Cc1ccc(O)cc1)C(N)=O)[C@@H](C)O)C(C)C)[C@@H](C)O
Turning to B1, in assay [1], the “Ratio hCT/hAmylin binding” value was found to be 151. In addition, the IC50 in assay [2] worked out at 42.5 nM; in assay [3], 0.281 nM.

B2: N^ε1-[(4S)-4-carboxy-4-(19-carboxynonadecanoylamino)butanoyl]-[Glu14,Arg17,Pro21,Pro27,Pro34,Glu35]-h-amylin (peptide)
peptide: K([γGlu-C20 diacid])CNTATCATQRLAEFLRHSSPNFGAIPSSTNVGPETY-NH2
modifications: disulfide 2-7; N-terminus assumed
SMILES: CC[C@H](C)[C@H](NC(=O)[C@H](C)NC(=O)CNC(=O)[C@H](Cc1ccccc1)NC(=O)[C@H](CC(N)=O)NC(=O)[C@@H]1CCCN1C(=O)[C@H](CO)NC(=O)[C@H](CO)NC(=O)[C@H](Cc1c[nH]cn1)NC(=O)[C@H](CCCNC(=N)N)NC(=O)[C@H](CC(C)C)NC(=O)[C@H](Cc1ccccc1)NC(=O)[C@H](CCC(=O)O)NC(=O)[C@H](C)NC(=O)[C@H](CC(C)C)NC(=O)[C@H](CCCNC(=N)N)NC(=O)[C@H](CCC(N)=O)NC(=O)[C@@H](NC(=O)[C@H](C)NC(=O)[C@@H]1CSSC[C@H](NC(=O)[C@@H](N)CCCCNC(=O)CC[C@H](NC(=O)CCCCCCCCCCCCCCCCCCC(=O)O)C(=O)O)C(=O)N[C@@H](CC(N)=O)C(=O)N[C@@H]([C@@H](C)O)C(=O)N[C@@H](C)C(=O)N[C@@H]([C@@H](C)O)C(=O)N1)[C@@H](C)O)C(=O)N1CCC[C@H]1C(=O)N[C@@H](CO)C(=O)N[C@@H](CO)C(=O)N[C@H](C(=O)N[C@@H](CC(N)=O)C(=O)N[C@H](C(=O)NCC(=O)N1CCC[C@H]1C(=O)N[C@@H](CCC(=O)O)C(=O)N[C@H](C(=O)N[C@@H](Cc1ccc(O)cc1)C(N)=O)[C@@H](C)O)C(C)C)[C@@H](C)O
For the molecule B2, the “Ratio hCT/hAmylin binding” value in assay [1] came out at 13.3. In addition, the results for the IC50 in assay [2] and in assay [3] were 1.86 nM and 0.14 nM, respectively.

B3: N^ε1-[(4S)-4-carboxy-4-(19-carboxynonadecanoylamino)butanoyl]-[Glu14,Arg17,Pro21,Pro27,Arg34,Glu35]-h-amylin (peptide)
peptide: K([γGlu-C20 diacid])CNTATCATQRLAEFLRHSSPNFGAIPSSTNVGRETY-NH2
modifications: disulfide 2-7; N-terminus assumed
SMILES: CC[C@H](C)[C@H](NC(=O)[C@H](C)NC(=O)CNC(=O)[C@H](Cc1ccccc1)NC(=O)[C@H](CC(N)=O)NC(=O)[C@@H]1CCCN1C(=O)[C@H](CO)NC(=O)[C@H](CO)NC(=O)[C@H](Cc1c[nH]cn1)NC(=O)[C@H](CCCNC(=N)N)NC(=O)[C@H](CC(C)C)NC(=O)[C@H](Cc1ccccc1)NC(=O)[C@H](CCC(=O)O)NC(=O)[C@H](C)NC(=O)[C@H](CC(C)C)NC(=O)[C@H](CCCNC(=N)N)NC(=O)[C@H](CCC(N)=O)NC(=O)[C@@H](NC(=O)[C@H](C)NC(=O)[C@@H]1CSSC[C@H](NC(=O)[C@@H](N)CCCCNC(=O)CC[C@H](NC(=O)CCCCCCCCCCCCCCCCCCC(=O)O)C(=O)O)C(=O)N[C@@H](CC(N)=O)C(=O)N[C@@H]([C@@H](C)O)C(=O)N[C@@H](C)C(=O)N[C@@H]([C@@H](C)O)C(=O)N1)[C@@H](C)O)C(=O)N1CCC[C@H]1C(=O)N[C@@H](CO)C(=O)N[C@@H](CO)C(=O)N[C@H](C(=O)N[C@@H](CC(N)=O)C(=O)N[C@H](C(=O)NCC(=O)N[C@@H](CCCNC(=N)N)C(=O)N[C@@H](CCC(=O)O)C(=O)N[C@H](C(=O)N[C@@H](Cc1ccc(O)cc1)C(N)=O)[C@@H](C)O)C(C)C)[C@@H](C)O
Consider B3, for which, in assay [1], the “Ratio hCT/hAmylin binding” value was 28.5. Besides, the IC50 in assay [2] came to 6.62 nM; in assay [3], 0.232 nM.

B4: N^ε1-[(4S)-4-carboxy-4-(19-carboxynonadecanoylamino)butanoyl]-[Glu14,Arg17,Pro21,Pro27,His35]-h-amylin (peptide)
peptide: K([γGlu-C20 diacid])CNTATCATQRLAEFLRHSSPNFGAIPSSTNVGSHTY-NH2
modifications: disulfide 2-7; N-terminus assumed
SMILES: CC[C@H](C)[C@H](NC(=O)[C@H](C)NC(=O)CNC(=O)[C@H](Cc1ccccc1)NC(=O)[C@H](CC(N)=O)NC(=O)[C@@H]1CCCN1C(=O)[C@H](CO)NC(=O)[C@H](CO)NC(=O)[C@H](Cc1c[nH]cn1)NC(=O)[C@H](CCCNC(=N)N)NC(=O)[C@H](CC(C)C)NC(=O)[C@H](Cc1ccccc1)NC(=O)[C@H](CCC(=O)O)NC(=O)[C@H](C)NC(=O)[C@H](CC(C)C)NC(=O)[C@H](CCCNC(=N)N)NC(=O)[C@H](CCC(N)=O)NC(=O)[C@@H](NC(=O)[C@H](C)NC(=O)[C@@H]1CSSC[C@H](NC(=O)[C@@H](N)CCCCNC(=O)CC[C@H](NC(=O)CCCCCCCCCCCCCCCCCCC(=O)O)C(=O)O)C(=O)N[C@@H](CC(N)=O)C(=O)N[C@@H]([C@@H](C)O)C(=O)N[C@@H](C)C(=O)N[C@@H]([C@@H](C)O)C(=O)N1)[C@@H](C)O)C(=O)N1CCC[C@H]1C(=O)N[C@@H](CO)C(=O)N[C@@H](CO)C(=O)N[C@H](C(=O)N[C@@H](CC(N)=O)C(=O)N[C@H](C(=O)NCC(=O)N[C@@H](CO)C(=O)N[C@@H](Cc1c[nH]cn1)C(=O)N[C@H](C(=O)N[C@@H](Cc1ccc(O)cc1)C(N)=O)[C@@H](C)O)C(C)C)[C@@H](C)O
Turning to B4, the “Ratio hCT/hAmylin binding” value in assay [1] stood at 26.4. Moreover, the figures for the IC50 in assay [2] and in assay [3] were 26.1 nM and 0.992 nM, respectively.

B5: N^ε1-[(4S)-4-carboxy-4-(19-carboxynonadecanoylamino)butanoyl]-[Glu14,Arg17,Pro21,Pro27,Pro34,Arg35]-h-amylin (peptide)
peptide: K([γGlu-C20 diacid])CNTATCATQRLAEFLRHSSPNFGAIPSSTNVGPRTY-NH2
modifications: disulfide 2-7; N-terminus assumed
SMILES: CC[C@H](C)[C@H](NC(=O)[C@H](C)NC(=O)CNC(=O)[C@H](Cc1ccccc1)NC(=O)[C@H](CC(N)=O)NC(=O)[C@@H]1CCCN1C(=O)[C@H](CO)NC(=O)[C@H](CO)NC(=O)[C@H](Cc1c[nH]cn1)NC(=O)[C@H](CCCNC(=N)N)NC(=O)[C@H](CC(C)C)NC(=O)[C@H](Cc1ccccc1)NC(=O)[C@H](CCC(=O)O)NC(=O)[C@H](C)NC(=O)[C@H](CC(C)C)NC(=O)[C@H](CCCNC(=N)N)NC(=O)[C@H](CCC(N)=O)NC(=O)[C@@H](NC(=O)[C@H](C)NC(=O)[C@@H]1CSSC[C@H](NC(=O)[C@@H](N)CCCCNC(=O)CC[C@H](NC(=O)CCCCCCCCCCCCCCCCCCC(=O)O)C(=O)O)C(=O)N[C@@H](CC(N)=O)C(=O)N[C@@H]([C@@H](C)O)C(=O)N[C@@H](C)C(=O)N[C@@H]([C@@H](C)O)C(=O)N1)[C@@H](C)O)C(=O)N1CCC[C@H]1C(=O)N[C@@H](CO)C(=O)N[C@@H](CO)C(=O)N[C@H](C(=O)N[C@@H](CC(N)=O)C(=O)N[C@H](C(=O)NCC(=O)N1CCC[C@H]1C(=O)N[C@@H](CCCNC(=N)N)C(=O)N[C@H](C(=O)N[C@@H](Cc1ccc(O)cc1)C(N)=O)[C@@H](C)O)C(C)C)[C@@H](C)O
As to B5, in assay [1], the “Ratio hCT/hAmylin binding” value stood at 38.6. The IC50 came to 6.3 nM in assay [2] and 0.163 nM in assay [3].
For K([γGlu-C20 diacid])CNTATCATQRLAEFLRHSSPNFGAIPSSTNVGPHTY-NH2 (disulfide 2-7) the same measures were 21.2, 3.8 nM and 0.179 nM.
